Laboratory results published in the supplement of paper PMC10126150.
± gives the standard deviation of the averaged measurements.

Test system: ATP
Assay: switch fluorescence ratio, 500 uM ATP over buffer (Cy3 cluster intensity, sum of 5 cycles each) (fold (ratio)); higher = stronger signal-on switching upon ATP binding; sequences stand for … in TCGTCGGCAGCGTCAGATGTGTATAAGAGACAGTTTTTTTTTTTTTTTTTTTTTTTTT…TC
Details: aptamer strand: ATP DNA aptamer (quencher-CACCTGGGGGAGTATTGCGGAGGAAGG + anchor), 100 nM annealed; ATP concentration: 500 uM
Outline: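 Five buffer/ATP imaging cycles were run on Cy3-labelled switching-strand clusters on a modified Illumina MiSeq flow-cell, with NaOH stripping and re-annealing between cycles. In each cycle, clusters annealed to 100 nM quencher-labelled ATP aptamer were imaged in selection buffer, then after 15 min with 500 uM ATP at 22 °C. Per cluster, the fluorescence ratio is summed target-cycle over summed buffer-cycle Cy3 intensity, averaged per switch-domain sequence. Only clusters within 100-1000 RFU were kept.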
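Note: ATP exposure 15 min at 22 °C before imaging.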

Sequence	switch fluorescence ratio
ATGAGGTGCT	1.02 ± 0.032
ATGAGGTTAG	0.947 ± 0.065
ATGAGTATTT	0.979 ± 0.046
ATGAGTGCCA	0.9844 ± 0.0013
ATGAGTTGGG	0.999 ± 0.024
ATGAGTTGTA	1.01 ± 0.012
ATGAGTTGTG	1 ± 0.017
ATGATAAGTA	1.006 ± 0.0034
ATGATAGTAA	1.009 ± 0.0027
ATGATAGTCG	0.993 ± 0.013
ATGATATGGG	0.985 ± 0.026
ATGATCAGGG	1.009 ± 0.01
ATGATCTCGT	0.968 ± 0.032
ATGATGAATG	0.975 ± 0.054
ATGATGGAAG	0.982 ± 0.015
ATGATGGACG	1.03 ± 0.062
ATGATGGCAA	1.03 ± 0.027
ATGATGGCTT	1.006 ± 0.0027
ATGATGGGCC	1 ± 0.041
ATGATGGGGC	0.9536 ± 0.0011
ATGATGTGGG	1.011 ± 0.0087
ATGATTACGA	1.03 ± 0.026
ATGATTATGA	1.04 ± 0.029

Sequence	switch fluorescence ratio
ATGATTTATT	1 ± 0.011
ATGATTTCTA	0.986 ± 0.024
ATGCAAGGCA	1.02 ± 0.04
ATGCAATCTT	1.11 ± 0.06
ATGCACTGGA	0.9969 ± 0.0075
ATGCAGACGA	1.1 ± 0.013
ATGCAGGAGT	0.98647 ± 0.00087
ATGCAGTATG	0.967 ± 0.025
ATGCATAGGC	0.983 ± 0.011
ATGCATGGAC	1.11 ± 0.12
ATGCATGGTA	1.03 ± 0.009
ATGCATTATG	1.02 ± 0.016
ATGCCAAAAG	1.01 ± 0.042
ATGCCAGGGA	1.01 ± 0.023
ATGCCAGGGT	0.998 ± 0.031
ATGCCCGGGC	0.988 ± 0.017
ATGCCGGTGT	0.996 ± 0.057
ATGCCTGGGC	1.03 ± 0.057
ATGCGAAACC	1.02 ± 0.051
ATGCGACGCT	1.091 ± 0.0038
ATGCGCGGTA	1.01 ± 0.068
ATGCGGGGGG	1.01 ± 0.021
ATGCGGGGTT	1.02 ± 0.05

Sequence	switch fluorescence ratio
ATGCGGGTG	1.04 ± 0.061
ATGCGTGACA	1.02 ± 0.036
ATGCTACCGT	1.03 ± 0.049
ATGCTACCTT	1.1 ± 0.048
ATGCTATTGT	1.03 ± 0.046
ATGCTCGCGG	0.983 ± 0.038
ATGCTGCGGG	1.06 ± 0.068
ATGCTGGGAC	1.01 ± 0.024
ATGCTGGGGG	0.994 ± 0.013
ATGCTGTTGC	0.9631 ± 0.0065
ATGGAAAATT	1.04 ± 0.02
ATGGAAGGGT	0.988 ± 0.052
ATGGAAGTTA	1.011 ± 0.0057
ATGGAATGGG	0.959 ± 0.01
ATGGAATTTG	0.98 ± 0.0098
ATGGACTATC	1.03 ± 0.046
ATGGACTGAA	0.992 ± 0.013
ATGGAGACGG	0.979 ± 0.019
ATGGAGCTAC	4.67 ± 1.3
ATGGAGGTTG	1.03 ± 0.022
ATGGAGTAAC	0.987 ± 0.011
ATGGATGCCT	1.01 ± 0.051
ATGGATGGGC	1.04 ± 0.057

Sequence	switch fluorescence ratio
ATGGCAGTGT	0.993 ± 0.018
ATGGCGAGGT	1.01 ± 0.059
ATGGCGATTG	0.996 ± 0.0078
ATGGCGTAGT	0.975 ± 0.036
ATGGCGTCCA	0.977 ± 0.045
ATGGCTGGGG	1 ± 0.019
ATGGCTGTCA	1.012 ± 0.0012
ATGGCTTGTC	1.03 ± 0.038
ATGGGAAAAA	1.01 ± 0.014
ATGGGAACCT	1.12 ± 0.18
ATGGGAAGTC	0.992 ± 0.024
ATGGGACAGC	0.975 ± 0.033
ATGGGAGAAG	0.95776 ± 0.00073
ATGGGAGTAG	0.9562 ± 0.0062
ATGGGATCTG	0.999 ± 0.025
ATGGGCAGAT	0.994 ± 0.071
ATGGGCATGG	1.04 ± 0.072
ATGGGCATTA	1 ± 0.017
ATGGGCCCGT	1.01 ± 0.1
ATGGGCGTAC	1.03 ± 0.054
ATGGGCGTAT	1.04 ± 0.017
ATGGGCTAGC	1.009 ± 0.0014
ATGGGCTCTT	1.04 ± 0.049

Sequence	switch fluorescence ratio
ATGGGGAATT	0.995 ± 0.035
ATGGGGAGAG	1.02 ± 0.028
ATGGGGAGGC	1.05 ± 0.051
ATGGGGATGG	0.978 ± 0.033
ATGGGGCACG	0.987 ± 0.037
ATGGGGGACT	1.02 ± 0.051
ATGGGGGCCT	1.02 ± 0.048
ATGGGGGGAC	0.987 ± 0.027
ATGGGGGGAG	0.997 ± 0.025
ATGGGGGGG	1.01 ± 0.014
ATGGGGGGGA	1.02 ± 0.027
ATGGGGGTGT	1.004 ± 0.0059
ATGGGGTAAC	0.969 ± 0.011
ATGGGGTCGG	1 ± 0.035
ATGGGGTGGT	0.993 ± 0.025
ATGGGGTT	0.992 ± 0.0053
ATGGGGTTCG	0.993 ± 0.035
ATGGGTACTG	0.963 ± 0.022
ATGGGTAGGG	0.967 ± 0.017
ATGGGTAGTG	0.984 ± 0.02
ATGGGTCCTG	0.979 ± 0.048
ATGGGTTACG	1 ± 0.033
ATGGGTTGAG	1.01 ± 0.0072

Sequence	switch fluorescence ratio
ATGGGTTTCT	0.989 ± 0.026
ATGGTAACGG	0.965 ± 0.042
ATGGTAATTT	0.977 ± 0.017
ATGGTAGCGC	1 ± 0.039
ATGGTAGTAT	0.986 ± 0.016
ATGGTAGTGC	0.986 ± 0.016
ATGGTATAGG	1.01 ± 0.032
ATGGTATATA	0.982 ± 0.025
ATGGTATGAA	0.979 ± 0.035
ATGGTCGCGC	0.993 ± 0.04
ATGGTCGGGG	0.995 ± 0.042
ATGGTCTTAT	0.997 ± 0.014
ATGGTGAGCG	0.978 ± 0.017
ATGGTGATAG	0.992 ± 0.011
ATGGTGGATT	0.965 ± 0.025
ATGGTGGCCG	0.997 ± 0.026
ATGGTGGGCT	0.9811 ± 0.0032
ATGGTGGGGG	0.995 ± 0.034
ATGGTGTACT	1.012 ± 0.0033
ATGGTGTTCG	0.987 ± 0.019
ATGGTGTTGC	0.964 ± 0.028
ATGGTTAAAG	0.996 ± 0.026
ATGGTTATGC	1.03 ± 0.051

Sequence	switch fluorescence ratio
ATGGTTCAAT	0.987 ± 0.029
ATGGTTCACT	1.023 ± 0.0032
ATGGTTCCCT	1.01 ± 0.02
ATGGTTGGGT	0.994 ± 0.012
ATGGTTGTGT	0.983 ± 0.034
ATGGTTTATG	0.9812 ± 0.0077
ATGGTTTGGT	0.997 ± 0.024
ATGGTTTTAA	1.03 ± 0.02
ATGGTTTTAG	0.993 ± 0.033
ATGTAAAAGT	0.986 ± 0.043
ATGTAATAGT	1.014 ± 0.0069
ATGTAATCTA	0.961 ± 0.036
ATGTAATTTG	0.988 ± 0.03
ATGTACTTGG	1.02 ± 0.013
ATGTAGAAAT	1.05 ± 0.039
ATGTAGCATA	1.57 ± 0.082
ATGTAGGCAG	0.961 ± 0.029
ATGTATAGCA	1 ± 0.041
ATGTATGGGC	0.9814 ± 0.0047
